Assay results from publication PMC6415871.

Tests used:
[1] = target: PCV2-His-ΔN45 capsid protein (porcine circovirus type 2) (UniProt O56129); assay: crystal structure; PCV2-His-ΔN45 at ~12 mg/ml, crystals from 2 M ammonium sulfate, 0.1 M citric acid pH 4.6; one icosahedral particle per asymmetric unit; 2.8 Å
[2] = target: full-length PCV2 capsid protein (porcine circovirus type 2) (UniProt O56129); assay: cryo-EM structure; in vitro assembled full-length PCV2 VLP, 300 kV Titan Krios, icosahedral reconstruction at 4.12 Å

Substance	stoichiometry N [1] [subunits]	stoichiometry N [2] [subunits]
PCV2-His-ΔN45 capsid protein (from UniProt O56129 45-233) (domain or fragment)	60	–
full-length PCV2 capsid protein (from UniProt O56129 1-233) (natural protein)	–	60
